In patent US20250177546A1 (SANYOU BIOPHARMACEUTICALS, published 2025):
Values belong to the binder of their own block, whether it stands above or below them.

Key:
[1] = biological target: T1, huROR1-His (human ROR1 ECD AA30-406 with C-terminal His tag, made in house) (human, UniProt Q01973 30-406); test: ELISA, huROR1-His coated plate, goat anti-human Fc-HRP, OD450
T1 construct: range 30-406; Expressed in HEK293; also called antigen protein huROR1-His; not shown: C-terminal His tag

[2] = biological target: T1, huROR1-His (human ROR1 ECD AA30-406 …); test: as above; remark: listed apart in the source
[3] = biological target: T1, huROR1-His (human ROR1 ECD AA30-406 …); test: Gator (BLI) Advanced Kinetics; antibody 30 nM, huROR1-His 480-7.5 nM
Procedure: First, Q buffer was prepared with PBS (10 mM pH7.4) (IgG-free, purchased from Jackson ImmunoResearch Lab)+0.02% Tween 20 (purchased from thermo)+0.2% BSA (purchased from source culture), and the stock solution of the test antibody was diluted with the prepared Q buffer to a working solution with a final concentration of 30 nM, the stock solution of the antigen protein huROR1-His was prepared with Q buffer into a working solution with multiple dilutions (480, 240, 120, 60, 30, 15, 7.5 nM), and detection and analysis was then performed with Gator instrument and its accompanying software, selecting the Advanced Kinetics experimental mode is used.

[4] = biological target: T2, MusROR1-His (mouse ROR1 ECD AA30-406 with C-terminal His tag) (mouse, UniProt Q9Z139 30-406); test: ELISA, MusROR1-His coated at 2 µg/mL, goat anti-human Fc-HRP, OD450
T2 construct: range 30-406; Expressed in HEK293; also called mouse ROR1 antigen protein; not shown: C-terminal His tag
T2 sequence (Q9Z139 30-406 limits assumed): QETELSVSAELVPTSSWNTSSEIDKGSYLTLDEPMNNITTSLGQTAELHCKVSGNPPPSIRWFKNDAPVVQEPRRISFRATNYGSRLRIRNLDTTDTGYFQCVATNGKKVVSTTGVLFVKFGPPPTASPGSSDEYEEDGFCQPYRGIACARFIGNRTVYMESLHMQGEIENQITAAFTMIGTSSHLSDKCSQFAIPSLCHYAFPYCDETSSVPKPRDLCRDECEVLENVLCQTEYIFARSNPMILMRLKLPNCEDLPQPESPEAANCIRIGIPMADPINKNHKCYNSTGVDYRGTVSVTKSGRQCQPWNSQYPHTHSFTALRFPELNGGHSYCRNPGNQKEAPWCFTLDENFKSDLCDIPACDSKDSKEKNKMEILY
Procedure: (§1) 96-well ELISA plate was coated with 2 μg/mL MusROR1-His (30 μL/well) at 4° C. overnight. The next day, the plate was washed three times with PBST and then blocked with 5% skim milk for 2 h. […] After washing with PBST for three times, the secondary antibody Goat-anti-human Fc-HRP (abcam, ab97225) was added and incubated for 1 h. After incubation, the plate was washed with PBST for 6 times and TMB (SurModics, TMBS-1000-01) was added for color development. According to the color development results, 2 M HCl was added to terminate the reaction, and the data were read at OD450 using a microplate reader (Molecular Devices, SpecterMax 190).

[5] = biological target: T3, human ROR1 on cells (full-length human ROR1 on huROR1-HEK293 cells; human ROR1 on A549 and HT-29 tumor cells) (human, UniProt Q01973 30-937); test: flow cytometry (FACS) on huROR1-HEK293 cells, anti-human IgG-Fc secondary antibody, MFI
T3 construct: whole, on cells; also called hROR1-HEK293T; A549 tumor cells
T3 sequence (Q01973 30-937): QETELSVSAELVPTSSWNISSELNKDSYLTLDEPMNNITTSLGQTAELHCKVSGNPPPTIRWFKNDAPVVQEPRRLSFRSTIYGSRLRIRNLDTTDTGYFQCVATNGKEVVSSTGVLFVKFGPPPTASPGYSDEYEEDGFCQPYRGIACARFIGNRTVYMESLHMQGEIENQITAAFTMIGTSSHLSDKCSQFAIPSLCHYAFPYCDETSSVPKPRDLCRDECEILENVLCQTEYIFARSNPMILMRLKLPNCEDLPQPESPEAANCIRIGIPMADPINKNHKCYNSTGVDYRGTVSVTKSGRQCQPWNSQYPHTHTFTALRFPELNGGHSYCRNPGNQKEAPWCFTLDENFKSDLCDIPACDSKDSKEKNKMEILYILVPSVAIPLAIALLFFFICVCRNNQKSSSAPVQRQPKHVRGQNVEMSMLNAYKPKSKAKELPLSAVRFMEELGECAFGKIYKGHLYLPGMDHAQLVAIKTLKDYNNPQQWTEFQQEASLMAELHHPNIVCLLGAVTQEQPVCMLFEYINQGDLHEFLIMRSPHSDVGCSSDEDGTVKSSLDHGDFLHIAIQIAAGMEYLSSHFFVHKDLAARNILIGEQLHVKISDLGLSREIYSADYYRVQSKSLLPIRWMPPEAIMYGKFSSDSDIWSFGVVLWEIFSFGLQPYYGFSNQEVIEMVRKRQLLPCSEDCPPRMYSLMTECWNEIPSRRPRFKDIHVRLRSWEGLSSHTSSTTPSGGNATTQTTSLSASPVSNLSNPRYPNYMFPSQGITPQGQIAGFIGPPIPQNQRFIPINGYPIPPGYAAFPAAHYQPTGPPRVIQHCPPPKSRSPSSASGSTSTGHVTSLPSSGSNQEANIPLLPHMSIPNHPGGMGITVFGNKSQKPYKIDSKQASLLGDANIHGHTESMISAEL
Procedure: (§2) In this example, the binding activity of the antibody was evaluated using two types of cells, huROR1-HEK293 cells over-expressing human ROR1 and A549 tumor cells.
(§3) The specific method was as follows: huROR1-HEK293 cells or A549 cells in the logarithmic growth phase were prepared to a single-cell suspension, the density was adjusted to 1×10⁶ cells/mL, then 100 μL/well cells were added to a 96-well round-bottom plate, centrifuged at 4° C., 300 g, and the supernatant was removed. […] After the incubation, the cell mixture was washed three times and then 100 μL of 1:300 diluted secondary antibody Goat F(ab′)₂ Anti-Human IgG-Fc (abcam, ab98596) was added. The mixture was incubated at 4° C. in the dark for 30 min. After washing three times, the cells were detected by flow cytometry (Beckman, CytoFLEX AOO-1-1102).

[6] = biological target: T3, human ROR1 on cells (full-length human …); test: flow cytometry (FACS) on A549 tumor cells, anti-human IgG-Fc secondary antibody, MFI
Procedure: as §2, §3

[7] = biological target: T1, huROR1-His (human ROR1 ECD AA30-406 …); test: Biacore T200 SPR; huROR1-His amine-coupled (~75 RU), antibody 4 and 20 nM as analyte, 1:1 Langmuir fit
Procedure: Protein coupling: The huROR1-His protein produced in Example 1.2 was diluted to 5.6 μg/mL with NaAc buffer, pH 5.0, the flow rate was set to 10 μL/min, the chip activation time was set to the default value of 420 s with a mixture of 1-ethyl-(3-dimethylaminopropyl)carbodiimide (EDC) and N-hydroxysuccinimide (NHS), and the antigen protein huROR1-His was fixed to a level of about 75 RU using a coupling mode with a preset coupling amount, and the activated groups that were not bound to the test sample were blocked with ethanolamine.
Sample test conditions: PBS buffer (pH 7.4) containing 0.05% Tween-20 was used as the running buffer, and the running buffer was used as the control test sample. A series of antibody concentrations (4 nM, 20 nM) were set. During sample analysis, the flow rate was set to 30 μL/min, the binding time was 120 s, and the dissociation time was 360 s. After the dissociation was completed, 10 mM Gly-HCl (pH 2.0) was used for regeneration for 20 s to completely remove the antibody bound to the ligand.
Parameter fitting: The experiment was run in multiple cycles, with the response signal taking the analysis time as the horizontal axis and the response value as the vertical axis. After double reference subtraction, the obtained data were fitted by BiAcore T200 analysis software. The fitting model adopted was 1:1 Langmuir binding model, and Affinity metrics such as the binding dissociation constant were determined.

[8] = biological target: T4, huROR2-His (human ROR2 ECD AA34-403 with C-terminal His tag) (human, UniProt Q01974 34-403); test: ELISA, huROR2-His coated at 2 µg/mL, goat anti-human Fc-HRP, OD450
T4 construct: range 34-403; Expressed in HEK293; also called human ROR2 antigen protein; not shown: C-terminal His tag
T4 sequence (Q01974 34-403 limits assumed): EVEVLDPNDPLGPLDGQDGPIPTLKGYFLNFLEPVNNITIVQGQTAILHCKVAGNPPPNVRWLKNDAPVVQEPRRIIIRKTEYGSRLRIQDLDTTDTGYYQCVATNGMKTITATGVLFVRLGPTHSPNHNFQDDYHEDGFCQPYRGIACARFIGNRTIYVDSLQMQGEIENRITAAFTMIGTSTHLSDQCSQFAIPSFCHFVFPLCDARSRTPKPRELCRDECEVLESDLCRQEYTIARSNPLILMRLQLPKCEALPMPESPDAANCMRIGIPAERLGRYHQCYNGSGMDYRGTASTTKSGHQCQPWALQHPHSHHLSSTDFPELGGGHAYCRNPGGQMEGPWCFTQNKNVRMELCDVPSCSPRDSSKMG
Procedure: as §1, with “huROR2-His” for “MusROR1-His”, “TMBS-1000-0)” for “TMBS-1000-01)”

[9] = biological target: T1, huROR1-His (human ROR1 ECD AA30-406 …); test: ELISA, huROR1-His coated at 2 µg/mL, goat anti-human Fc-HRP, OD450
Procedure: as §1, with “huROR1-His” for “MusROR1-His”

T1 sequence (Q01973 30-406 limits assumed): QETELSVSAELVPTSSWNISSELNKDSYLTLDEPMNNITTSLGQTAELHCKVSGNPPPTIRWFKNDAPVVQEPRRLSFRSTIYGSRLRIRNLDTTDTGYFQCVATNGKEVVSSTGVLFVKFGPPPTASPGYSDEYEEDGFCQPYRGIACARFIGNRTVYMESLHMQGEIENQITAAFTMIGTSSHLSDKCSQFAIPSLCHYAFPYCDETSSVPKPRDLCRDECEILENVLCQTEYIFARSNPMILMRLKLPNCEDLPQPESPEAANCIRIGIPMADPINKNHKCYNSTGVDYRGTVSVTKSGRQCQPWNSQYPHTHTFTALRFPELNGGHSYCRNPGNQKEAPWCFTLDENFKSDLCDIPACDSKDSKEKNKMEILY

EC50 [1]: 6.27 ng/mL
B1: B62-H2L2 (antibody, human IgG1, kappa)
heavy: not shown
light: DIQLTQSPSSLSASVGDRVTIRCVTSIDIDDDVNWYQQKPGKAPKLLISAGNTLRPGVPSRFSGSGSGTDFTFTISSLQPEDIATYYCLQSDNLPYTFGGGTKLEIKRTVAAPSVFIFPPSDEQLKSGTASVVCLLNNFYPREAKVQWKVDNALQSGNSQESVTEQDSKDSTYSLSSTLTLSKADYEKHKVYACEVTHQGLSSPVTKSFNRGEC

EC50 [2]: 6.24 ng/mL
B2: B62-H3L4 (antibody, human IgG1, kappa, V domains shown)
VH: EVQLVESGGGLVQPGGSLRLSCAASGFTFSSYVMSWVRQAPGKGLEYVATINSNGGNTYYADSVKGRFTISRDNSKNTLYLQMGSLRAEDTAMYYCARDSLGLRRRDYAMDYWGQGTTVTVSS
VL: DIQMTQSPSSLSASVGDRVTITCQTSIDIDDDVNWYQQKPGKAPKLLISAGNTLETGVPSRFSGSGSGTDFTFTISSLQPEDIATYYCLQSDNLPYTFGGGTKLEIKR

EC50 [1]: 7.88 ng/mL
B3: B62-H1L2 (antibody, human IgG1, kappa, V domains shown)
VH: EVQLVESGGGLVQPGGSLRLSCAASGFTFSSYVMSWVRQTPGKRLELVATINSNGGNTYYPDSVKGRFTISRDNAKNTLYLQMSSLRAEDTAMYYCARDSLGLRRRDYAMDYWGQGTTVTVSS
VL: DIQLTQSPSSLSASVGDRVTIRCVTSIDIDDDVNWYQQKPGKAPKLLISAGNTLRPGVPSRFSGSGSGTDFTFTISSLQPEDIATYYCLQSDNLPYTFGGGTKLEIKR

EC50 [2]: 8.48 ng/mL
B4: B62-H2L4 (antibody, human IgG1, kappa, V domains shown)
VH: EVQLVESGGGLVQPGGSLRLSCAASGFTFSSYVMSWVRQAPGKGLELVATINSNGGNTYYPDSVKGRFTISRDNAKNTLYLQMGSLRAEDTAMYYCARDSLGLRRRDYAMDYWGQGTTVTVSS
VL: DIQMTQSPSSLSASVGDRVTITCQTSIDIDDDVNWYQQKPGKAPKLLISAGNTLETGVPSRFSGSGSGTDFTFTISSLQPEDIATYYCLQSDNLPYTFGGGTKLEIKR

EC50 [1]: 7.1 ng/mL
B5: B62-H1L1 (antibody, human IgG1, kappa, V domains shown)
VH: EVQLVESGGGLVQPGGSLRLSCAASGFTFSSYVMSWVRQTPGKRLELVATINSNGGNTYYPDSVKGRFTISRDNAKNTLYLQMSSLRAEDTAMYYCARDSLGLRRRDYAMDYWGQGTTVTVSS
VL: DIQLTQSPSSLSASVGDRVTIRCVTSIDIDDDVNWYQQKPGKAPKLLISAGNTLRPGVPSRFSSSGYGTDFTFTISSMQPEDIATYYCLQSDNLPYTFGGGTKLEIKR

Kd [3]: 0.984 nM | koff [3]: 0.000373 s⁻¹ | kon [3]: 379000 M⁻¹ s⁻¹ | EC50 [1]: 5.58 ng/mL | EC50 (read off the curve) [4]: ~4 ng/mL | EC50 (read off the curve) [5]: ~70 ng/mL | EC50 (read off the curve) [6]: ~6 ng/mL | Kd [7]: 0.0639 nM | koff [7]: 7.74e-05 s⁻¹ | kon [7]: 1.21e+06 M⁻¹ s⁻¹ | t 1/2 [7]: 2.49 h | EC50 [2]: 5.46 ng/mL | binding result [8]: no binding (tested: 1 µg/mL) | EC50 [9]: 8.03 ng/mL
B6: B62 (chimeric antibody) (antibody, human IgG1, kappa, V domains shown)
VH: DVKLVESGGGLVQPGGSLKLSCAASGFTFSSYVMSWVRQTPDKRLELVATINSNGGNTYYPDSVKGRFTISRDNAKNTLYLQMSSLKSEDTAMYYCARDSLGLRRRDYAMDYWGQGTSVTVSS
VL: DIVLTQSPASLSMAIGEKVTIRCVTSIDIDDDVNWYQQKPGKPPKLLISAGNTLRPGVPSRFSSSGYGTDFVFTIENMLSEDVADYYCLQSDNLPYTFGGGTKLEIKR
notes: ExpiCHO expression

EC50 [2]: 6.59 ng/mL
B7: B62-H3L2 (antibody, human IgG1, kappa)
heavy: not shown
light: DIQLTQSPSSLSASVGDRVTIRCVTSIDIDDDVNWYQQKPGKAPKLLISAGNTLRPGVPSRFSGSGSGTDFTFTISSLQPEDIATYYCLQSDNLPYTFGGGTKLEIKRTVAAPSVFIFPPSDEQLKSGTASVVCLLNNFYPREAKVQWKVDNALQSGNSQESVTEQDSKDSTYSLSSTLTLSKADYEKHKVYACEVTHQGLSSPVTKSFNRGEC
